Assay results: the supplement of paper PMC10567573

B1: ZNF263 (parent)
chain: LLRHQRIHTGERPYKCPECGKSFS
B2: CDS2 (parent)
chain: LIVVTQSHLVIHNLFEGMIWFIVP

Variants of: B1
Test: protein stability index of a GFP-peptide fusion (GPS, HEK-293T) (PSI 1-6); higher = more stable
Conditions: c terminus: a fixed tail appended
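Note: lentivirally expressed fusions sorted by FACS into six bins by GFP to DsRed ratio, PSI derived from sequencing read proportions per bin multiplied by bin number.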

| Variant | protein stability index |
| --- | --- |
| R3N | 2.28 |
| R3E | 2.9 |
| R3V | 2.3 |
| R3G | 2.68 |
| R3D | 3.77 |
| R3W | 2.3 |
| R3L | 1.63 |
| R3C | 2.98 |
| R3Y | 1.62 |
| R3M | 2.04 |
| R3F | 1.58 |
| R3S | 2.81 |
| R3I | 2.25 |
| R3P | 2.76 |
| R3H | 2.56 |
| R3K | 2.48 |
| R3A | 3.21 |
| R3Q | 2.34 |
| R3T | 3.27 |
| L2E | 3.61 |
| L2W | 1.86 |

| Variant | protein stability index |
| --- | --- |
| L2D | 3.39 |
| L2I | 1.78 |
| L2C | 4.89 |
| L2N | 3.27 |
| L2Y | 1.82 |
| L2H | 3.11 |
| L2V | 4.05 |
| L2S | 3.11 |
| L2P | 2.63 |
| L2Q | 2.57 |
| L2A | 1.96 |
| L2F | 3.31 |
| L2G | 2.76 |
| L2T | 2.71 |
| L2M | 3.08 |
| L1N | 2.85 |
| L1H | 2.44 |
| L1G | 2.73 |
| L1C | 4.12 |
| L1T | 2.9 |
| L1Q | 4.46 |

| Variant | protein stability index |
| --- | --- |
| L1P | 2.83 |
| L1D | 2.62 |
| L1W | 2.95 |
| L1S | 2.26 |
| L1A | 2.82 |
| L1R | 4.23 |
| L1K | 3.58 |
| L1F | 3.5 |
| L1V | 3.03 |
| L1Y | 3.07 |
| L1M | 1.65 |
| L1I | 2.06 |
| L1E | 2.29 |
| H4E | 2.81 |
| H4G | 2.99 |
| H4C | 3.89 |
| H4D | 2.58 |
| H4F | 1.92 |
| H4A | 2.18 |

Variants of: B2
Test: as above
Conditions: c terminus: a fixed tail appended

| Variant | protein stability index |
| --- | --- |
| F15E | 2.13 |
| F15L | 2.41 |
| F15V | 2.72 |
| F15M | 4.48 |
| F15N | 3.64 |
| F15W | 4.64 |
| F15R | 2.03 |
| F15S | 3.64 |
| F15I | 3.58 |
| F15K | 3.4 |
| F15P | 2.8 |
| F15Q | 2.25 |
| V23E | 4.22 |
| V23L | 3.54 |
| V23W | 1.67 |
| V23Q | 1.52 |
| V23A | 2.36 |
| V23T | 3.31 |
| V23Y | 3.02 |
| V23N | 2.51 |
| V23I | 2.9 |
| V23C | 3.47 |
| V23D | 3.03 |
| V23S | 1.85 |
| V23F | 4.17 |

| Variant | protein stability index |
| --- | --- |
| S7K | 2.27 |
| S7L | 3.2 |
| S7D | 2.68 |
| S7N | 2.81 |
| S7Y | 3.16 |
| S7G | 3.76 |
| S7W | 3.44 |
| S7V | 3.79 |
| S7P | 4.35 |
| S7F | 2.19 |
| S7T | 4.59 |
| S7I | 2.54 |
| S7R | 4.35 |
| S7H | 2.31 |
| G17Y | 1.68 |
| G17H | 2.8 |
| G17P | 2.82 |
| G17W | 2.35 |
| G17Q | 2.63 |
| G17N | 2.29 |
| G17V | 3.48 |
| G17M | 3.13 |
| G17A | 3.15 |
| G17I | 1.85 |
| G17L | 3.83 |

| Variant | protein stability index |
| --- | --- |
| G17E | 2.55 |
| G17R | 3.21 |
| G17S | 3.9 |
| G17D | 2.93 |
| E16L | 4.5 |
| E16S | 3.4 |
| E16A | 4.16 |
| E16K | 2.35 |
| E16T | 2.83 |
| E16F | 2.52 |
| E16G | 2.9 |
| E16N | 3.06 |
| E16W | 3.98 |
| E16Q | 2.01 |
| E16M | 3.76 |
| E16P | 2.48 |
| E16Y | 2.74 |
| E16D | 3.44 |
| E16I | 3.46 |
| H8T | 2.91 |
| H8S | 4.08 |
| H8D | 4.35 |
| H8N | 3.36 |
| H8W | 2.77 |
| H8R | 2.81 |

| Variant | protein stability index |
| --- | --- |
| H8F | 3.38 |
| H8M | 2.48 |
| H8V | 4.43 |
| H8C | 3.31 |
| H8L | 3.47 |
| H8E | 2.35 |
| H8I | 2.81 |
| H8G | 4.59 |
| M18V | 4.17 |
| M18A | 4.48 |
| M18W | 2.66 |
| M18P | 2.89 |
| M18D | 3.2 |
| M18Y | 3.67 |
| M18I | 3.09 |
| M18K | 1.96 |
| M18E | 4.08 |
| M18S | 2.98 |
| M18R | 1.99 |
| M18C | 4.05 |
| M18F | 3.12 |
| M18G | 2.85 |
| M18Q | 2.68 |
| L9D | 2.62 |
| L9Q | 3.56 |

| Variant | protein stability index |
| --- | --- |
| L9F | 1.48 |
| L9H | 1.56 |
| L9A | 2.29 |
| L9R | 2.9 |
| L9N | 2.36 |
| L9T | 3.82 |
| L9P | 5.08 |
| L9W | 2.91 |
| L9Y | 2.24 |
| L9I | 1.84 |
| L9S | 1.96 |
| L9V | 2.3 |
| L9K | 3.33 |
| W20C | 3.16 |
| W20E | 2.38 |
| W20V | 3.06 |
| W20D | 2.87 |
| W20S | 3.64 |
| W20M | 2.28 |
| W20H | 3.23 |
| W20Q | 4.66 |
| W20K | 1.61 |
| W20F | 2.83 |
| W20I | 3.21 |
| W20P | 2.6 |

| Variant | protein stability index |
| --- | --- |
| W20R | 2.57 |
| W20N | 3.08 |
| W20G | 2.19 |
| I11E | 2.39 |
| I11R | 2.2 |
| I11N | 4.03 |
| I11F | 3.51 |
| I11M | 2.84 |
| I11V | 2.52 |
| I11K | 4.09 |
| I11G | 2.27 |
| I11W | 1.04 |
| I11H | 1.57 |
| I11D | 3.58 |
| I11C | 3.04 |
| I11S | 3.42 |
| I11L | 2.48 |
| Q6P | 3.21 |
| Q6S | 2.58 |
| Q6N | 3.99 |
| Q6D | 4.07 |
| Q6R | 1.46 |
| Q6I | 2.71 |
| Q6M | 1.77 |
| Q6E | 2.59 |

| Variant | protein stability index |
| --- | --- |
| Q6L | 4.3 |
| Q6T | 2.85 |
| Q6A | 2.85 |
| Q6V | 2.76 |
| Q6C | 2.42 |
| L14T | 3.05 |
| L14Q | 2.25 |
| L14D | 3.03 |
| L14W | 2.72 |
| L14V | 2.71 |
| L14F | 2.92 |
| L14E | 2.99 |
| L14P | 2.64 |
| L14K | 3.69 |
| L14A | 1.86 |
| L14Y | 3.06 |
| L14G | 3.6 |
| L14I | 3.44 |
| H12L | 3.7 |
| H12D | 3.58 |
| H12G | 3.39 |
| H12A | 3.32 |
| H12M | 2.67 |
| H12T | 4.2 |
| H12K | 2.6 |

| Variant | protein stability index |
| --- | --- |
| H12C | 3.91 |
| H12P | 1.35 |
| H12I | 1.85 |
| H12R | 1.5 |
| N13S | 3.02 |
| N13M | 4.66 |
| N13H | 1.83 |
| N13D | 2.63 |
| N13K | 2.81 |
| N13I | 4.67 |
| N13G | 2.9 |
| N13T | 1.61 |
| N13R | 2.08 |
| N13A | 4.23 |
| N13Y | 2.44 |
| N13V | 3.45 |
| N13E | 2.93 |
| N13L | 3.44 |
| N13P | 3.48 |
| N13C | 3.03 |
| N13F | 2.94 |
| V10Q | 4.6 |
| V10K | 2.67 |
| V10L | 1.96 |
| V10M | 2.77 |

| Variant | protein stability index |
| --- | --- |
| V10A | 3.19 |
| V10T | 2.15 |
| V10P | 1.52 |
| V10D | 1.79 |
| V10F | 3.01 |
| V10C | 2.23 |
| V10H | 2.88 |
| V10W | 2.46 |
| V10I | 4.56 |
| V10G | 1.83 |
| P24G | 3.29 |
| P24R | 3.1 |
| P24Y | 2.3 |
| P24W | 3.81 |
| P24M | 2.59 |
| P24L | 2.19 |
| P24F | 2.52 |
| P24H | 3.13 |
| P24S | 1.99 |
| P24C | 3.63 |
| P24D | 2.06 |
| P24V | 2.65 |
| P24N | 2.81 |
| I19W | 3.61 |
| I19K | 2.41 |

| Variant | protein stability index |
| --- | --- |
| I19Q | 3.36 |
| I19S | 2.75 |
| I19P | 3.75 |
| I19A | 2.65 |
| I19M | 2.95 |
| I19F | 2.89 |
| I19L | 1.84 |
| I19G | 3.67 |
| T5W | 2.72 |
| T5Y | 2.99 |
| T5P | 3.86 |
| T5S | 5.49 |
| T5K | 2.97 |
| T5Q | 3.1 |
| T5I | 2.58 |
| T5L | 2.71 |
| T5M | 3.04 |
| T5H | 3.62 |
| T5V | 2.65 |
| T5R | 3.33 |
| I22N | 1.8 |
| I22F | 2.83 |
| I22Q | 1.69 |
| I22W | 3.42 |
| I22P | 2.56 |

| Variant | protein stability index |
| --- | --- |
| I22L | 3.99 |
| I22D | 4.26 |
| I22A | 2.07 |
| I22E | 3.14 |
| I22M | 3.27 |
| I22Y | 2.27 |
| I22S | 3.28 |
| I22K | 3.07 |
| I22R | 2.85 |
| I22T | 3.85 |
| F21N | 3.24 |
| F21L | 3.42 |
| F21Y | 2.52 |
| F21R | 2.94 |
| F21K | 4.85 |
| F21W | 1.6 |
| F21T | 3.04 |
| F21G | 2.49 |
| F21E | 1.96 |
| F21V | 2.39 |
| F21C | 3.4 |
| F21S | 2.8 |
| F21I | 3.28 |
